# Test results: US20110021974A1, “RETINITIS PIGMENTOSA TREATMENT AND PROPHALAXIS” (priority 2010, published 2011)
# How the values were obtained:
# photoreceptor cell = details: applied topically to the eyes; in vitro model; cited from earlier work
# [1] = MSM ophthalmic drops in patients; type: in vivo
# Description: We have used aqueous solutions of MSM filtered, sterilized, and mixed with insulin.
# [2] = cited from earlier work
# [3] = in vivo; cited from earlier work
# [4] = Description: The present invention formulations contain only 0.10 to 1.00 IU per drop which the dosage can be increased or the dosage can be decreased depending upon the disease states.
# retinitis pigmentosa [5] = test: Insulin ophthalmic drops in oculopathies including retinitis pigmentosa; type: in vivo; details: used for years
# Description: This and other metabolic and therapeutic qualities of the insulin will prevent the development, stop the progression, and curtail or cure the retinitis pigmentosa. I have used insulin ophthalmic drops for various oculopathies, including, retinitis pigmentosa for years with great success.
# [6] = Insulin added to anti allergic ophthalmic agents in eye allergy; type: in vivo; details: insulin with vasoconstrictors and anti allergic agents such as corticosteroids
# Description: Follow the instruction as described in the above EXAMPLE 1. The symptoms of an eye allergy are mild to moderate where allergies can be severe during early spring and the beginning of fall. Self treatment to avoid allergens, to irrigate the eyes with saline (salt solution) and to place the ice packs, and the cold water compresses on eyes which this may not be effective in a severe case. The medical treatment is needed to relieve them. Retinitis pigmentosa associated with severe allergic conjunctivitis. This condition isn't helped by other treatments. Conjunctivitis may benefit from specific allergen immunotherapy (desensitization) which the therapy is usually effective. Most commonly used and prescribed medications are: levocabastine (brand name Livostin); antihistamines (antolozine) together with a medicine that constricts blood vessels (naphazoline, phenylephrine); sodium cromoglycate (4%); non-steroidal anti-inflammatory (NSAID) eye drops; and steroids (hydrocortisone, Dexamethasone, prednisolone). Eye drops containing anti allergic, vasoconstrictors, and cortisone, can be used long term to treat retinitis pigmentosa and allergic conditions. The drops with insulin applied before the use of the above described therapeutic agents.
# [7] = preliminary studies
# [8] = system: H2O2 induced lipid peroxidation; details: insulin pretreatment; cited from earlier work
# [9] = system: MCF-7 human breast cancer cells; details: in vitro; cited from earlier work
# macular edema = details: in vivo; cited from earlier work
# [10] = Curcumin safety for retina and CNS; details: in vivo
# Description: Deferoxamine may modulate expression and release of inflammatory mediators in the retinitis pigmentosa as indicated in Fenton reaction by specific cell types, thus, reduce or stop the damage by our invention. Deferoxamine used with insulin of our invention along with ophthalmic drops can reduce the ROS oxidant damage, arrest, or delay the processes of retinitis pigmentosa. We have used this method to treat the CNS disease with good results. We have used the extract of Turmeric, called curcumin, with insulin as antioxidant with good results.
# [11] = system: patients with retinitis pigmentosa; details: cited from earlier work
# [12] = ADT given orally and as eye drops in dry mouth and dry eyes conditions; type: in vivo; details: 25 mg orally and nanograms concentration in eye drops
# Description: Follow the instruction as described in the above EXAMPLE 1. Another drug available to treat autoimmune disease related to Sjogren's disease is an organo sulfur compound, anethole dithiolethione (ADT-trade name Sialor, sold over the counter in Canada) with hardly any side effects. The ADT stimulates the secretion of saliva, in patients with autoimmune exocrinopathy (Sjogren's syndrome). Sialor alleviates the symptoms of xerostomia and xeroophthalmia. We have used ADT 25 mg orally and ADT in nanograms concentration in liquid ophthalmic eye drops with successes in these conditions, especially, those on chemotherapy, menopausal women, and chronic smokers with dry mouth and dry eyes conditions.
# retinitis pigmentosa [13] = details: administered in a form suitable to obtain therapeutic tissue concentrations; cited from earlier work
compound,measurement,setting,value
brimonidine tartrate,photoreceptor cell degeneration,photoreceptor cell,can prevent photoreceptor cell degeneration
"CS(C)(=O)=O [MSM, Methylsulfonylmethane]",vision reported by patients,"[1]; MSM ophthalmic drops, aged, Lyme disease and cancer patients",their vision had improved
same,"treatment result in retinitis pigmentosa, dry eye syndrome, glaucoma and other oculopathies","[1]; aqueous MSM mixed with insulin, as eye drops",good results
same,solubility in water,[2],soluble in water
Insulin detemir,Effective duration of action,[3],14 h
same,Maximum duration,[3],~20 h
same,Onset of Action,[3],3 to 4 h
same,Peak action in hours,[3],6 to 8 h
insulin,blood sugar levels after local application,"[4]; local application incl. scalp, gums, oral and nasal mucosa, conjunctival sac, wounds, tumors",did not change the blood sugar levels
same,hypoglycemic effects,"[4]; ophthalmic insulin drops, applicant's practice",never reported the development of a single case of hypoglycemic effects
same,treatment result in oculopathies including retinitis pigmentosa,retinitis pigmentosa [5],great success
same,relief of the allergic condition,[6],relieved rapidly
same,absorption from the conjunctival sac,[7],rapidly absorbed
same,H2O2 induced lipid peroxidation,[8],greatly inhibited
same,increase of the cytotoxic effect of methotrexate,[9],"up to 10,000 fold"
Insulin glargine,Effective duration of action,[3],18 to 20 h
same,Maximum duration,[3],20 to 24 h
same,Onset of Action,[3],3 to 4 h
same,Peak action in hours,[3],8 to 16 h
Regular (soluble): short-acting insulin,Effective duration of action,[3],3 to 6 h
same,Maximum duration,[3],6 to 8 h
same,Peak action in hours,[3],2 to 3 h
CC(=O)Nc1nnc(S(N)(=O)=O)s1 [Acetazolamide],improving the macular edema compared to brinzolamide,macular edema,more effective
"COc1cc(/C=C/C(=O)CC(=O)/C=C/c2ccc(O)c(OC)c2)ccc1O [Curcumin, curcumin]",toxicity to the retina or the CNS,[10],isn't toxic to the retina or the CNS
CCCCCCCCCCCCCCCC(=O)OC/C=C(C)/C=C/C=C(C)/C=C/C1=C(C)CCCC1(C)C [vitamin A palmitate],progression of retinitis pigmentosa,[11]; daily intake of 15000 IU (equivalent to 4.5 mg),can be reduced
Insulin aspart,Onset of Action in hours,[3],¼-½
Insulin glulisine,Onset of Action in hours,[3],¼-½
anethole dithiolethione [ADT],treatment result in dry mouth and dry eyes conditions,[12],successes
Insulin lispro,Onset of Action in hours,[3],¼-½
vitamin A,postponement of blindness,[11]; vitamin A supplementation,~10 years
"O=C(O)COc1nn(Cc2ccccc2)c2ccccc12 [bendazac, (1-phenylmethyl-1IH-indazol-3-yl) oxy acetic acid]",effect on retinitis pigmentosa,retinitis pigmentosa [13],improvement in retinitis pigmentosa
